Source: patent US20160194380A1 (Merck KGaA, published 2016)
Where no end group is shown, it is not given here.

T1: Human matriptase-1 (human, UniProt Q9Y5Y6 596-855, limits assumed)
T1 construct: also called MTSP1
T1 sequence (looked up): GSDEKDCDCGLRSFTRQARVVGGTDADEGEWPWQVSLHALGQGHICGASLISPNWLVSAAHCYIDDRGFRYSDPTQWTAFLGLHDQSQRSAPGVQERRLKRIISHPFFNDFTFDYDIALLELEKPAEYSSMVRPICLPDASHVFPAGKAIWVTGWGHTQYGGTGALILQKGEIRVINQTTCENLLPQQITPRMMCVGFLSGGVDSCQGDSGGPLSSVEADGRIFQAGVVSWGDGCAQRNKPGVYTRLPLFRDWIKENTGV

B1: MCoTI-II wt (inhibitor 3) (peptide, UniProt P82409 5-34, looked up)
peptide: GGVCPKILKKCRRDSDCPGACICRGNGYCG
modifications: disulfide (positions not given here); also: oxidatively folded, disulfide places not given here
notes: Open-chain (acyclic) form, chemically synthesised and oxidatively folded; also called 3 (MCoTI-II wt); MCoTI-wt 3
B2: SOTI-III wt (inhibitor 1) (peptide, UniProt P84781 1-37, looked up)
peptide: EDKCSPSGAICSGFGPPEQCCSGACVPHPILRIFVCQ
modifications: disulfide (positions not given here); also: oxidatively folded, disulfide places not given here
notes: Made by Fmoc-SPPS and oxidative folding; also called 1 (SOTI-III wt); SOTI-III wild type 1

Columns and labels:
Human matriptase-1 = target: T1, Human matriptase-1; test: protease inhibition assay, substrate-independent Ki from Morrison fit
Description: (§1) D: Biol. Crystallogr., 69(2013), 114-120; Reinwarth, ChemBioChem, 14(2013), 137-146; Boy, Mol. Imaging Biol. 12(2010), 377-385] Measurements were carried out in triplicates using a Tecan Genios ELISA reader. The normalized residual proteolytic activity (v/v0) of proteases was determined using substrates Boc-QAR-pNA (250 μM), Boc-QAR-AMC (250 μM) or Spectrozym tPA (250 μM). Product formation was monitored after preincubation (30 min, RT) with inhibitor at different concentrations over 30 min by measuring the absorbance at 405 nm or the fluorescence emission (ex. 360 nm, em. 465 nm), respectively. Selectivity data were carried out in duplicates with final protease concentrations of uPA and thrombin of 5 nM. In case of hepsin 50 mM Tris/HCl pH 9.0 was used as assay buffer. Apparent inhibition constants (Kᵢ^app) were calculated by fitting the Morrison equation (1) for tight-binding inhibitors to the relative reaction velocity using non-linear regression (Marquardt-Levenberg algorithm, SigmaPlot 11).
(§2) Substrate-independent inhibition constants Ki were calculated from Ki^app and Km of the enzyme according to (2). The Michaelis-Menten constant Km for the substrates and proteases were determined previously.

[1] = target: T2, Bovine pancreatic trypsin (bovine, UniProt P00760 24-246); test: as above
T2 construct: Bought
T2 sequence (P00760 24-246): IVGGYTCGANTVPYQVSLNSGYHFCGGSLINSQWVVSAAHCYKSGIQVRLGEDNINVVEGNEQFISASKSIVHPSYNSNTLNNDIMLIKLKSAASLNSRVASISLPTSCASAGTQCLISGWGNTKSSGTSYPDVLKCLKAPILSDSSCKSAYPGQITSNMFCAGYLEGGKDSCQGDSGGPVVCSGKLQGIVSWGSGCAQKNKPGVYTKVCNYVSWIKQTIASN
Description: as §1, §2

| Binder | Ki (Human matriptase-1) | Ki [1] |
| --- | --- | --- |
| B1 | 80.7 nM | 2.37 nM |
| B2 |  | 60.6 nM |
